Measured values from article PMC6419104, “Structural basis of guanine nucleotide exchange for Rab11 by SH3BP5” (Life Science Alliance, 2019).
Positions count from the first letter of the chain named. Names and notes keep the numbering of the source. Values belong to the binder of their own block, whether it stands above or below them.

Experiments:
SH3BP5 (10–276) = biological target: T1, SH3BP5 (10–276) (human, UniProt O60239 10-276); assay: crystal structure; SH3BP5 (10–276)–Rab11a (1–173) complex at 6.2 g/l, sitting drop vapor diffusion at 20°C; reservoir 0.4–0.75 M NaCl, 0.1 M NaH2PO4 (pH 6.8), 15–17% PEG2000; 3.8 Å; four complexes in the asymmetric unit; conditions: both partners purified
T1 construct: Residues 10–41 and 268–276 were invisible in the electron density; The purification of this construct and of the complex is not described; also called wild-type SH3BP5 (10–276); source: E. coli Rosetta (DE3)
T1 sequence (looked up): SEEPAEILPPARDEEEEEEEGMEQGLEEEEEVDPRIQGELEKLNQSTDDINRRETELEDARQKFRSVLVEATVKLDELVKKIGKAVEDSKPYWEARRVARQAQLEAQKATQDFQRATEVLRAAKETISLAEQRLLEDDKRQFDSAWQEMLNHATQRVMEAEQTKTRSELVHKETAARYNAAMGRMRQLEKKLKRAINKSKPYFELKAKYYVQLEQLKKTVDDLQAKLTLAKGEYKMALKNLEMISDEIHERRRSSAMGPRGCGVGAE

[1] = biological target: Rab11a (1–211) E39A (human) (UniProt P62491)
[2] = biological target: Rab11a (1–211) K41A (human) (UniProt P62491)
[3] = biological target: Rab11a (1–211) L38A (human) (UniProt P62491)
[4] = biological target: Rab11a (1–211) S40A (human) (UniProt P62491)
[5] = biological target: Rab11a (1–211) S42A (human) (UniProt P62491)
Rab11a (1–173) (human) = Rab11a (1–173) (human) (UniProt P62491)

- binding result (SH3BP5 (10–276)): binds
B1: Rab11a (1–173) (domain or fragment, human, UniProt P62491 1-173, looked up)
chain: MGTRDDEYDYLFKVVLIGDSGVGKSNLLSRFTRNEFNLESKSTIGVEFATRSIQVDGKTIKAQIWDTAGQERYRAITSAYYRGAVGALLVYDIAKHLTYENVERWLKELRDHADSNIVIMLVGNKSDLRHLRAVPTDEARAFAEKNGLSFIETSALDSTNVEAAFQTILTEIY
notes: human Rab11a, residues 1–173; Nucleotide-free in the complex structure (a phosphate ion on the P loop); loaded with Mant-GDP in the GEF assay; source: E. coli Rosetta (DE3), purified (Ni-NTA, Ulp1 cleavage, Superdex200, second Ni-NTA); not shown: His6-SUMO, N-terminal, cleaved

- GEF activity: Mant-GDP release from Rab11a by fluorescence, with GppNHp (% of the wild-type activity) [1]: 50
- GEF activity: Mant-GDP release from Rab11a by fluorescence, with GppNHp (% of the wild-type activity) [2]: 25
- GEF activity: Mant-GDP release from Rab11a by fluorescence, with GppNHp (% of the wild-type activity) [3]: 50
- GEF activity: Mant-GDP release from Rab11a by fluorescence, with GppNHp (% of the wild-type activity) [4]: 25
- GEF activity: Mant-GDP release from Rab11a by fluorescence, with GppNHp (% of the wild-type activity) [5]: 25
B2: SH3BP5 (41–266; R260A/R261A/R262A) (domain or fragment)
chain: VDPRIQGELEKLNQSTDDINRRETELEDARQKFRSVLVEATVKLDELVKKIGKAVEDSKPYWEARRVARQAQLEAQKATQDFQRATEVLRAAKETISLAEQRLLEDDKRQFDSAWQEMLNHATQRVMEAEQTKTRSELVHKETAARYNAAMGRMRQLEKKLKRAINKSKPYFELKAKYYVQLEQLKKTVDDLQAKLTLAKGEYKMALKNLEMISDEIHEAAASSAM

- GEF activity: Mant-GDP release from Rab11a by fluorescence, with GppNHp (%, relative to wild type) (Rab11a (1–173) (human)): 50
B3: SH3BP5-RA E251A (domain or fragment)
chain: B2 chain with E211A
